Results published in PMC7423924, “A fluorogenic cyclic peptide for imaging and quantification of drug-induced apoptosis” (Nature Communications, 2020).
Where “and” joins values, the source holds several entries; their conditions need not be identical. Identical values can stand only once.

Tested on: neutrophils (myeloid)
Assay: Flow cytometry staining before and after induction of apoptosis, neutrophils
Type: cell-based, human
Conditions: single replicates, listed as Ann V
Procedure: Fig. 2 Apo-15 binds to apoptotic cells of different origin in multiple environments. a Representative fluorescence confocal microscopy images (from three independent experiments) human apoptotic (yellow arrows) and viable (white arrows) cells from different lineages: BL-2 (lymphoid), neutrophils (myeloid), and primary airway epithelial cells (epithelial). Cells were incubated with Apo-15 (100 nM, green), AF647-Annexin V (5 nM, red), and Hoechst 33342 (7 μM, blue) for 10 min and imaged under a fluorescence confocal microscope (λexc.: 405, 488, 633 nm: λem.: 450, 525, 670 nm). Scale bars: 10 µm. b Divalent cation-independent binding of Apo-15 to apoptotic cells of different origin (top plots: lymphoid cells, bottom plots: myeloid cells). Mixtures of apoptotic (highlighted in green dots) and viable cells (highlighted in black dots) were stained with AF647-Annexin V (25 nM) and Apo-15 (100 nM) in the presence of 2 mM CaCl2 (left) or 2.5 mM EDTA (right). Representative histograms showing Apo-15 binding (x-axis) vs AF647-Annexin V binding (y-axis) acquired on 5L LSR flow cytometer (n = 5). c Cells were sorted on their Apo-15 positivity (green populations in panel b) or negativity (black populations in panel b). Gating strategy in Supplementary Fig. 7. Morphological analysis (four independent images from two independent experiments) of cytocentrifuge preparations of Apo-15-positive and Apo-15-negative cells under brightfield microscopy (scale bar: 10 µm). d Quantification of fluorescence staining of neutrophils (myeloid, n ≥ 5), BL-2 cells (lymphoid, n ≥ 3) and primary airway epithelial cells (epithelial, n = 5) before and after induction of apoptosis and upon treatment with Apo-15 and AF647-Annexin V. Data acquired on 5 L LSR flow cytometer and presented as mean values ± SEM. P values obtained from two-tailed t tests. Source data (in d) are provided as a Source data file. […]
Work with human peripheral blood leukocytes complied with all relevant ethical regulations and informed consent was obtained. […]

B1: Annexin V: fluorescently-labeled (AF647) annexin V, PS-binding protein (protein, UniProt P08758 2-320, looked up)
Annexin A5: AQVLRGTVTDFPGFDERADAETLRKAMKGLGTDEESILTLLTSRSNAQRQEISAAFKTLFGRDLLDDLKSELTGKFEKLIVALMKPSRLYDAYELKHALKGAGTNEKVLTEIIASRTPEELRAIKQVYEEEYGSSLEDDVVGDTSGYYQRMLVVLLQANRDPDAGIDEAQVEQDAQALFQAGELKWGTDEEKFITIFGTRSVSHLRKVFDKYMTISGFQIEETIDRETSGNLEQLLLAVVKSIRSIPAYLAETLYYAMKGAGTDDHTLIRVMVSRSEIDLFNIRKEFRKNFATSLYSMIKGDTSGDYKKALLLLCGEDD
modifications: AF647 label
Stained cells (flow cytometry) (neutrophils 0 h, before induction of apoptosis): 2.6% and 3.7% and 2.0% and 1.4% and 1.1%
Stained cells (flow cytometry) (neutrophils 18 h, EDTA (2.5 mM)): 0.0% and 0.5%
Stained cells (flow cytometry) (neutrophils after 18 h culture at 37 °C): 51.9% and 32% and 59.2% and 56.9% and 54.7% and 56.2% and 68% and 42.1% and 61.5% and 44.8% and 31.8% and 64.6% and 60.9% and 43.7% and 65.3% and 57.6% and 48% and 40.7% and 35.2% and 65.8% and 72.2% and 52.7% and 70.5% and 46.6%
